Experiments:
[1] = biological target: chimeric receptor bearing feline CD134 CRD1 in the context of human CD134, on cells (feline | human)
[2] = biological target: CXCR4, endogenous on feline cells (feline (endogenous in MCC)) (UniProt P56498)
[3] = biological target: CXCR4, endogenous on feline cells (feline (endogenous in MCC)) (UniProt P56498); assay: flow cytometry on cells; MCC cells stably transduced with fCD134, the CRD1 chimera, human CD134 or vector only were incubated with Fc-SU fusion proteins; bound protein detected with PE-anti-human IgG Fc; 10,000 events

Chain of UniProt P56498 (P56498 whole entry, the tested form may be a part): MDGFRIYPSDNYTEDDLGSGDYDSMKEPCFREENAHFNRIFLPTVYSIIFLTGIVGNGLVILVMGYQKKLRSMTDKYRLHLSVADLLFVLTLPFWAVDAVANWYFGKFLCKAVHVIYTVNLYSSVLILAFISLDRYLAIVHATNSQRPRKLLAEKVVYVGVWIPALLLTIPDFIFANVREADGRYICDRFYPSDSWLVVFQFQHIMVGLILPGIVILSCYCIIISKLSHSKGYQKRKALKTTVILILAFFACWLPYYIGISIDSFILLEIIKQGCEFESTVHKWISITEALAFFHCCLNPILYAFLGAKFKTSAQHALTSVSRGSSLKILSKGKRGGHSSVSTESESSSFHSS

Substance	infection of MCC-CRD1 cells by HIV(FIV) luciferase pseudotypes, fold reduction [1] [fold]	entry of HIV(FIV) pseudotypes into MYA-1 cells with the CXCR4 antagonist AMD3100 at 0.1 μg/ml, fold reduction [2] [fold]	other results
FIV GL8 Env T271I, on HIV(FIV) luciferase pseudotypes (natural protein)	27	–	–
FIV GL8 Env, wild type, on HIV(FIV) luciferase pseudotypes (natural protein)	–	100	infection of MCC-CRD1 cells by HIV(FIV) luciferase pseudotypes, fold less efficient than on MCC cells expressing CD134 [1]: 300 fold
FIV GL8 Env Δ2N double mutant (T271I and N342Y), on HIV(FIV) luciferase pseudotypes (natural protein)	47	–	–
FIV CPG41 Env, wild type, on HIV(FIV) luciferase pseudotypes (natural protein)	–	5	–
FIV GL8 Env SU-Fc fusion protein, wild type	–	–	percent binding of Fc-SU (human CD134-expressing MCC cells) [3]: 17.2%
